Source: article PMC10713552 (Communications Biology, 2023)
Residue numbers refer to the chain shown, from its start.

B1: N3-1_M (antibody, V domains shown)
VH: QVQLQQWGPGLVNPSETLSLTCSVSGGSFATENYYWSWIRQHPGEGLEWIGNIYFSGNTYYNPSLNNRFTISFDTSKNHLSLKLPSVTAADTAVYYCARGTIYFDMSGYRRVDPFHIWGQGTMVIVSS
VL: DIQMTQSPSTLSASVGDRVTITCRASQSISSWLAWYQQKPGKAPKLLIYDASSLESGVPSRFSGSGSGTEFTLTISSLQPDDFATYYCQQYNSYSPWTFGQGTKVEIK
notes: IgG1
B2: N3-1_V (antibody, V domains shown)
VH: B1 VH with M106V
VL: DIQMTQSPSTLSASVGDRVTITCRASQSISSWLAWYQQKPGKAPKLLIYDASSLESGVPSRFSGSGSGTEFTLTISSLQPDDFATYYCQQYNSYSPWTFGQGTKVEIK
notes: IgG1
B3: N3-1_Q (antibody, V domains shown)
VH: B1 VH with M106Q
VL: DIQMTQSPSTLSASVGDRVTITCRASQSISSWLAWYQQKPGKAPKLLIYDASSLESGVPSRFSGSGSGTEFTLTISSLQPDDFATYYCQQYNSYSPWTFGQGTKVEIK
notes: IgG1
B4: 0341-MN3_T65F (antibody, V domains shown)
VH: B1 VH with T59F
VL: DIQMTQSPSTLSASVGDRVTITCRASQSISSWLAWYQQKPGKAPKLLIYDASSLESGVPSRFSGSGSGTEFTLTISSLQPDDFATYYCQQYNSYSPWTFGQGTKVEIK
notes: source: Expi293F, transfected
B5: 0358-N3_T65D (antibody, V domains shown)
VH: B1 VH with T59D, M106R
VL: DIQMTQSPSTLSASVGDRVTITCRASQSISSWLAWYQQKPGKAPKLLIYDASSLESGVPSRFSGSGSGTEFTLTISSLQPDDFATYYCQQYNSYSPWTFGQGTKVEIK
notes: source: Expi293F, transfected
B6: 0354-MN3_T65V (antibody, V domains shown)
VH: B1 VH with T59V
VL: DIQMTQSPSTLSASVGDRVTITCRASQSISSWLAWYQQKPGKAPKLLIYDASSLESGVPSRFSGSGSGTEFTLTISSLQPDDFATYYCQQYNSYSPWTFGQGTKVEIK
notes: source: Expi293F, transfected
B7: 0347-MN3_T65M (antibody, V domains shown)
VH: B1 VH with T59M
VL: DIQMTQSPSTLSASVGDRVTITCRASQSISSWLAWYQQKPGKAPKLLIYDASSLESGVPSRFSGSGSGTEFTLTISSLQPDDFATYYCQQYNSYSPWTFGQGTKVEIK
notes: source: Expi293F, transfected
B8: 0335-LN3_T65V (antibody, V domains shown)
VH: B1 VH with T59V, M106L
VL: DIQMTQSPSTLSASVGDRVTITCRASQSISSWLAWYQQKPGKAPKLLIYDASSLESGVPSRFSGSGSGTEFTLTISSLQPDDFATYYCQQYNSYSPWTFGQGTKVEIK
notes: source: Expi293F, transfected
B9: 0371-N3_T65S (antibody, V domains shown)
VH: B1 VH with T59S, M106R
VL: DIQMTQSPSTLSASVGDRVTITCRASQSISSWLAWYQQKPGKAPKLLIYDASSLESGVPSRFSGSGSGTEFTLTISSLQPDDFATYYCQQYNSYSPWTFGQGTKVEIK
notes: source: Expi293F, transfected
B10: 0350-MN3_T65Q (antibody, V domains shown)
VH: B1 VH with T59Q
VL: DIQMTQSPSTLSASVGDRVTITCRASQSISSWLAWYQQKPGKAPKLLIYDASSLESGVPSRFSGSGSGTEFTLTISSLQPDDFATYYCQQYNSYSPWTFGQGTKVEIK
notes: source: Expi293F, transfected
B11: 0346-MN3_T65L (antibody, V domains shown)
VH: B1 VH with T59L
VL: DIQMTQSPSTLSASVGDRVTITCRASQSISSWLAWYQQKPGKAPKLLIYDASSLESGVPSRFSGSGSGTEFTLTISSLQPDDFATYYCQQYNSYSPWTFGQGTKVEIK
notes: source: Expi293F, transfected
B12: 0378-YN3_T65E (antibody, V domains shown)
VH: B1 VH with T59E, M106Y
VL: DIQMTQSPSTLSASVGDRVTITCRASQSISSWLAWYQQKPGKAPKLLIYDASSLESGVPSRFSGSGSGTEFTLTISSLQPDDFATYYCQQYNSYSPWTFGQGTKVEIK
notes: source: Expi293F, transfected
B13: 0345-MN3_T65K (antibody, V domains shown)
VH: B1 VH with T59K
VL: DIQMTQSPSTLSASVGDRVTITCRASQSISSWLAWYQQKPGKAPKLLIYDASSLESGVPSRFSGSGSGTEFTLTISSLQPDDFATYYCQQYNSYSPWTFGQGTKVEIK
notes: source: Expi293F, transfected
B14: 0383-YN3_T65K (antibody, V domains shown)
VH: B1 VH with T59K, M106Y
VL: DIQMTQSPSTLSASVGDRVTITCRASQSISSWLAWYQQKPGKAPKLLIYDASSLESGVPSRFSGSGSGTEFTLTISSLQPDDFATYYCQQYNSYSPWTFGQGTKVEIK
notes: source: Expi293F, transfected
B15: 0362-N3_T65H (antibody, V domains shown)
VH: B1 VH with T59H, M106R
VL: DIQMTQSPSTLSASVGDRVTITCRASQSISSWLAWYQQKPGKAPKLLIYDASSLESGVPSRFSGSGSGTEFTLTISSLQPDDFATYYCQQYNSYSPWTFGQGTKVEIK
notes: source: Expi293F, transfected
B16: 0386-YN3_T65N (antibody, V domains shown)
VH: B1 VH with T59N, M106Y
VL: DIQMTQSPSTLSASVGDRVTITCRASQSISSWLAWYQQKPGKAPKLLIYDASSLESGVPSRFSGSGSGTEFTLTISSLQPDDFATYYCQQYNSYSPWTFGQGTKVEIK
notes: source: Expi293F, transfected
B17: 0329-LN3_T65N (antibody, V domains shown)
VH: B1 VH with T59N, M106L
VL: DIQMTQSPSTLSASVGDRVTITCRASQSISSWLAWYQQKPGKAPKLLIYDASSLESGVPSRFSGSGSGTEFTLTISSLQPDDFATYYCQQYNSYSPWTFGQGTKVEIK
notes: source: Expi293F, transfected
B18: 0344-MN3_T65I (antibody, V domains shown)
VH: B1 VH with T59I
VL: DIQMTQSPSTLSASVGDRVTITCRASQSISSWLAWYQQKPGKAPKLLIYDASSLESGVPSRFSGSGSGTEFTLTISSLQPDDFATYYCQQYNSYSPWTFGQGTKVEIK
notes: source: Expi293F, transfected
B19: 0363-N3_T65I (antibody, V domains shown)
VH: B1 VH with T59I, M106R
VL: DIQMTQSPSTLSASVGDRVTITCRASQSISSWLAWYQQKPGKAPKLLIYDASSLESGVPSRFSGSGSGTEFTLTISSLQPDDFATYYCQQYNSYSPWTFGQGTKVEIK
notes: source: Expi293F, transfected
B20: 0348-MN3_T65N (antibody, V domains shown)
VH: B1 VH with T59N
VL: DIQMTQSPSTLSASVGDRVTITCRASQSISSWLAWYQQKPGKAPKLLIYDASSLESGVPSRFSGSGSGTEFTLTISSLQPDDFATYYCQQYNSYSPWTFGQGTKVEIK
notes: source: Expi293F, transfected
B21: 0379-YN3_T65F (antibody, V domains shown)
VH: B1 VH with T59F, M106Y
VL: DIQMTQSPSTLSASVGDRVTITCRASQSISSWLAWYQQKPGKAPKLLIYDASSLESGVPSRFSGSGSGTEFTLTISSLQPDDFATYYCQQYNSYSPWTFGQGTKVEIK
notes: source: Expi293F, transfected
B22: 0380-YN3_T65G (antibody, V domains shown)
VH: B1 VH with T59G, M106Y
VL: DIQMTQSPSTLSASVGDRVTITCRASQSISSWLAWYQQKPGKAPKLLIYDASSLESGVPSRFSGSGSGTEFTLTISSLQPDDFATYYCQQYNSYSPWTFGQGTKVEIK
notes: source: Expi293F, transfected
B23: 0367-N3_T65N (antibody, V domains shown)
VH: B1 VH with T59N, M106R
VL: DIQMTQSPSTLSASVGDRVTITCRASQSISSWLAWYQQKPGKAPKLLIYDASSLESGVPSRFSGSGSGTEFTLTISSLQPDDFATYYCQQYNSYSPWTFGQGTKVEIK
notes: source: Expi293F, transfected
B24: 0349-MN3_T65P (antibody, V domains shown)
VH: B1 VH with T59P
VL: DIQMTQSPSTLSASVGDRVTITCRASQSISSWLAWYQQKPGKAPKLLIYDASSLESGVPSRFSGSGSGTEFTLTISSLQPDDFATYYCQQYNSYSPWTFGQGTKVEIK
notes: source: Expi293F, transfected
B25: 0327-LN3_T65L (antibody, V domains shown)
VH: B1 VH with T59L, M106L
VL: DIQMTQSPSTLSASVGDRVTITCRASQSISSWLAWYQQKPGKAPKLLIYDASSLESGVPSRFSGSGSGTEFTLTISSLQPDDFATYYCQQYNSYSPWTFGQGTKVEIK
notes: source: Expi293F, transfected
B26: 0381-YN3_T65H (antibody, V domains shown)
VH: B1 VH with T59H, M106Y
VL: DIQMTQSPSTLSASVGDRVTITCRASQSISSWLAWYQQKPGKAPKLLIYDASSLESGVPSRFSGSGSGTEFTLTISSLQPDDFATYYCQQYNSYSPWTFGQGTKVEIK
notes: source: Expi293F, transfected
B27: 0374-N3_T65W (antibody, V domains shown)
VH: B1 VH with T59W, M106R
VL: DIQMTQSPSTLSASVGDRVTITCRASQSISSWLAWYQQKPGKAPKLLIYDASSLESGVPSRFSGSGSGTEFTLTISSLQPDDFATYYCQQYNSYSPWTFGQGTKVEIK
notes: source: Expi293F, transfected
B28: 0352-MN3_T65S (antibody, V domains shown)
VH: B1 VH with T59S
VL: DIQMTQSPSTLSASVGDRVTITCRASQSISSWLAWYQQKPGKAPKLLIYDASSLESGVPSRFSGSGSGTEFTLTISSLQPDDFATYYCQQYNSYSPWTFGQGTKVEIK
notes: source: Expi293F, transfected
B29: 0351-MN3_T65R (antibody, V domains shown)
VH: B1 VH with T59R
VL: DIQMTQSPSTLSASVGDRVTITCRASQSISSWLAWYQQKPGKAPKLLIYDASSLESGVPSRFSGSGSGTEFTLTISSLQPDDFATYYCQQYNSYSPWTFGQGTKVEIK
notes: source: Expi293F, transfected
B30: 0319-LN3_T65A (antibody, V domains shown)
VH: B1 VH with T59A, M106L
VL: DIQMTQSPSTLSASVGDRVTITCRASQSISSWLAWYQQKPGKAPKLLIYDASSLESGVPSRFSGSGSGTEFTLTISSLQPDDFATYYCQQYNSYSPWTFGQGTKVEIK
notes: source: Expi293F, transfected
B31: 0340-MN3_T65E (antibody, V domains shown)
VH: B1 VH with T59E
VL: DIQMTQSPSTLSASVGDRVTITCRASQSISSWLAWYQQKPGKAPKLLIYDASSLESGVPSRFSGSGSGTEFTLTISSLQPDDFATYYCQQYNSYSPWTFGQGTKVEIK
notes: source: Expi293F, transfected

molecular target: T1, D614G-Hexapro (WT) spike ectodomain (SARS-CoV-2 Wuhan-Hu-1 D614G, D614G); test: BLI; settings: both partners purified

Binder	Kd [nM]	koff [s⁻¹]	kon [M⁻¹ s⁻¹]
B1	4.22	0.000278	65900
B2	3.78	0.00023	60900
B3			1000

molecular target: T2, Omicron BA.1 spike protein ectodomain (BLI) (SARS-CoV-2 Omicron BA.1, strain); test: BLI; settings: both partners purified

Binder	Kd [nM]	koff [s⁻¹]	kon [M⁻¹ s⁻¹]
B1	428	0.00368	8590
B2	1340	0.00726	5410
B3	4800	0.015	3120

molecular target: Omicron BA.2 spike protein ectodomain (BLI) (SARS-CoV-2, Omicron BA.2, strain); test: BLI; settings: both partners purified

Binder	Kd [nM]	koff [s⁻¹]	kon [M⁻¹ s⁻¹]
B1	178	0.00245	13800
B2	704	0.00681	9670
B3	483	0.00403	8360

molecular target: Omicron BA.2.12 spike protein ectodomain (BLI) (SARS-CoV-2 Omicron BA.2.12.1, strain); test: BLI; settings: both partners purified

Binder	Kd [nM]	koff [s⁻¹]	kon [M⁻¹ s⁻¹]
B1	28	0.000621	22200
B2	421	0.00542	12900
B3	291	0.00336	11500

molecular target: Omicron BA.5 spike protein ectodomain (BLI) (SARS-CoV-2 Omicron BA.5 (BA.4/5 spike), strain); test: BLI; settings: both partners purified

Binder	Kd [nM]	koff [s⁻¹]	kon [M⁻¹ s⁻¹]
B1	172	0.00253	14700
B2	1470	0.0163	11100
B3	771	0.00666	8640

molecular target: T1, D614G-Hexapro (WT) spike ectodomain; test: BLI; settings: not given

Binder	Kd [nM]	koff [s⁻¹]	kon [M⁻¹ s⁻¹]
B1	4420	0.00151	342
B4	146	0.000179	1230
B5			174
B6	292	0.00118	4030
B7	880	0.000233	264
B8	135	0.000502	3730
B9	592	0.000157	265
B10	643	0.00015	233
B11	3320	0.000421	127
B12	0.186	0.000168	906000
B13	346	7.97e-05	230
B14	682	0.000178	261
B15	318	0.00046	1450
B16	8.83	0.00138	156000
B17	187	0.000519	2780
B18	1670	0.0005	299
B19	71	2.3e-05	324
B20	130	9.93e-05	765
B21	2000	0.000202	101
B22	77.3	0.000311	4020
B23	1.09	0.000175	160000
B24	2.97	0.00117	392000
B25	183	0.00127	6950
B26	663	0.00016	242
B27			190
B28	6.97	0.0014	201000
B29	3.87	0.000806	208000
B30	244	0.000836	3430
B31	371	7.27e-05	196

molecular target: T2, Omicron BA.1 spike protein ectodomain …; test: BLI; settings: not given

Binder	Kd [nM]	koff [s⁻¹]	kon [M⁻¹ s⁻¹]
B1	33.2	0.00105	31700
B4	41.2	0.00171	41500
B5	68.8	0.000857	12500
B6	67.6	0.00153	22700
B7	39.7	0.00209	52700
B8	49.2	0.00196	39700
B9	108	0.00113	10400
B10	38.5	0.000871	22700
B11	64.2	0.00252	39200
B12	1740	0.000439	253
B13	41.4	0.00172	41600
B14	50.6	0.00099	19600
B15	378	0.00114	3020
B16	66.3	0.00052	7850
B17	98.7	0.000925	9380
B18	151	0.0026	17200
B19	1580	0.00106	673
B20	43	0.00196	45700
B21	89.3	0.00105	11700
B22	4980	0.00218	438
B23	642	0.00176	2740
B24	8260	0.00219	265
B25	58.6	0.00147	25100
B26	8040	0.00217	269
B27	42.5	0.000694	16300
B28	124	0.0017	13700
B29	175	0.00187	10700
B30	59.6	0.00229	38400
B31	48.2	0.0021	43700
